{"source": "patent US11129870B2", "about": "“Compositions and methods for uncoupling TrkB receptor from PLC gamma 1 for the treatment of epilepsy and anxiety-like disorder” (DUKE UNIVERSITY, priority 2010, dated 2021)", "biological_target": "T1, TrkB-PLCγ1 binding (Mus musculus, UniProt Q62077)", "T1 construct": "The hippocampi were rapidly dissected on ice and homogenized in RIPA buffer; from tissue; host or cells: hippocampus of naïve C57BL/6 mice", "T1 sequence (Q62077 1-1302)": "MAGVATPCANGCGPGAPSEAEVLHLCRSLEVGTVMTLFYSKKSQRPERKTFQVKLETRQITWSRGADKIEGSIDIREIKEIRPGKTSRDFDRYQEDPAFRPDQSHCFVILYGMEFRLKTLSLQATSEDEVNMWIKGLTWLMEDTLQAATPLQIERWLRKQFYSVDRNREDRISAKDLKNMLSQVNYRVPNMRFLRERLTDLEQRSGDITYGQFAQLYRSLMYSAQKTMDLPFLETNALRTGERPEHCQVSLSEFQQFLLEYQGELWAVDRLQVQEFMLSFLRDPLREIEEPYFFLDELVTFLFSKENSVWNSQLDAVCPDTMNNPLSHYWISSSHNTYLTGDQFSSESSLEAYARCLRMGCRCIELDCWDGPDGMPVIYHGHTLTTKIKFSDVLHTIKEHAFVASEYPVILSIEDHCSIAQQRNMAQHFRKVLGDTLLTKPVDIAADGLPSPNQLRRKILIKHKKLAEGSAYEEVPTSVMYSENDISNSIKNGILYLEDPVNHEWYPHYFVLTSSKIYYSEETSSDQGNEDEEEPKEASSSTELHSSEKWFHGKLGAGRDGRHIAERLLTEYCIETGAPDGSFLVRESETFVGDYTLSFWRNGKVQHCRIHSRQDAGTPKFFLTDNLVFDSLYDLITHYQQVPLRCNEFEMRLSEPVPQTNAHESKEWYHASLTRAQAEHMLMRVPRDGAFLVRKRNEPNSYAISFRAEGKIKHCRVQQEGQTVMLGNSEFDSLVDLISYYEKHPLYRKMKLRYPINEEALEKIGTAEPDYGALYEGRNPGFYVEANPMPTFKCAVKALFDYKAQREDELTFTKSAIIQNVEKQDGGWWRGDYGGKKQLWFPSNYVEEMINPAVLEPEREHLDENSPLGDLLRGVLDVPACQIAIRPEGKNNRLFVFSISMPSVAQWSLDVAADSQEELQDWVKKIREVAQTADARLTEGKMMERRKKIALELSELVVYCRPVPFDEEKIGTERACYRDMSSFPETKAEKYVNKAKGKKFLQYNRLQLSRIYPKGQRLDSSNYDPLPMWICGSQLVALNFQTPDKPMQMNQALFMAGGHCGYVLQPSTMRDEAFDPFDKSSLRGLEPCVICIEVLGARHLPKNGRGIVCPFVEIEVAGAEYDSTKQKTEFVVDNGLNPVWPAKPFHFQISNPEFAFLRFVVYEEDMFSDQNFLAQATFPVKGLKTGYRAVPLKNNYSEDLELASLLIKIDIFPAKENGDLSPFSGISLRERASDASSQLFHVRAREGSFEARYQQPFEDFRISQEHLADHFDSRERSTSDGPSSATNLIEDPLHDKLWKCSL", "test": "Co-immunoprecipitation of TrkB and PLCγ1 from hippocampal homogenates after i.v. peptide", "assay_type": "in vivo", "conditions": "10 mg/kg i.v., 3 hr, hippocampus, compared to Scr", "method": "Animals were anesthetized with pentobarbital (200 mg/kg i.p.) and decapitated, and the head was quickly immersed in liquid nitrogen for 4 s to rapidly cool the brain. The hippocampi were rapidly dissected on ice and homogenized in RIPA buffer, incubated on ice for 15 min, and centrifuged at 200,000×g for 10 min at 4° C. The supernatant was collected and stored at −80° C. until further analysis. TrkB was immunoprecipitated using TrkB antibody (1:1000, Millipore) and the lysates were incubated with 100 μL of protein A-Sepharose beads (Roche) overnight in 4° C. The beads/immune complexes were pelleted in a microcentrifuge and then resuspended in RIPA buffer and this procedure was repeated two additional times before adding 2×SDS PAGE sample buffer and boiled. After SDS PAGE, the gels were probed with TrkB and PLCγ1 antibody (1:1000, Cell signaling). Western blotting was conducted as previously described (He et al., 2010). Cell lysate and hippocampal homogenate were probed with p-PLCγ1 (pY783), PLCγ1, p-Akt (pS473), Akt, p-ERK (p44/p42) and ERK (1:1000, Cell signaling). The immunoreactivity of individual bands on western blots was measured by ImageJ software (National Institutes of Health) and normalized to PLCγ1, Akt or ERK contents. Equivalent protein loading among samples was monitored by β-actin (1:10000; Sigma) levels. […]", "note": "Where no end group is shown, it is not given here. [ ]: non-standard residue; d: D form. pY = N[C@@H](Cc1ccc(OP(=O)(O)O)cc1)C(=O)O"}
{"substance": "YGRKKRRQRRR-LQNLAKASPVpYLDI (YGRKKRRQRRRLQNLAKASPV[pY]LDI) [pY816]", "values": [{"measurement": "co-immunoprecipitation of TrkB and PLCγ1", "value": "inhibited the co-immunoprecipitation of TrkB and PLCγ1"}]}
